This data set can be described thus: label from the status in PepcDB records.
As for “MSAQFMTTVPVVLYLALSFGVALWARGRTAEGGSAKDIIEEYYIGGRSMGGFVLAMTIIASYTSAGSFVGGPGVAYRLGLSWVLLAMIQVPTTFLTLGVLGKRFAIVARRAGAVTLTDYLLARYRSHTVVILCSAALLVFFMAAMLAQFIGGARLFQTVTGYPYVVGLALFGVTVVLYTAVGGFRAVVVTDAVQGIVMVVAVVVVLLAVIDAGGGMTQCIATLKAIDPGLITPTGPGDAVPQPFMLSFWVLVGLGVLGLPQTTQRCMGYRDSRAMHDAMIIGTLLIGFMILCAHLAGTLGRAVLPDLPAGDLAMPSLIVQLLSPFWAGVFIAGPLAAIMSTVDSMLLLASAAIVKDLYVRYRLGGDTSRLRPVTMKRMSVASTAVIGVLVFVAAMEPPDLLVWINLFAFGGLEAVFLWPLVLGLYWRRGNATGAIASILSGVTAFVWLTIAKPDMGGIHAIVPTTLLSLVMFVAGSLAGRPSGREVDALFGGERS”, the protein production entry was “failed”.

For the sequence “MSASGLLVEKSGPLSLIQDFGRFGLAHIGITQGGPVDDYAYSWANHLLGNRVNCSAIEITLGNACFIALQDCHLAICGGDLNASVDGHPIANWSDFSIKKGQKLQFGMAKNGLRAYLAVKGGFNVPEHLGSSSTVLREALGGLEANGNALKAGDVLPFDAHSLPNHKPRIMTFRFKPDYNLPITLRVIEGYQCDDFSVEAKEKFYSGSFAISPDSNRMGYRLEGNTVKPPYDGILSEGIALGAIQIPHDGNPIVLLNDHQTIGGYPKLGCVARIDLPRLAQAKPGQKVRFVKGDRQGLQDVWCQWAQFFGY”, the protein production entry is on record as “failed”. Take “MSASIRDAGVADLPGILAIYNDAVGNTTAIWNETPVDLANRQAWFDTRARQGYPILVASDAAGEVLGYASYGDWRPFEGFRGTVEHSVYVRDDQRGKGLGVQLLQALIERARAQGLHVMVAAIESGNAASIGLHRRLGFEISGQMPQVGQKFGRWLDLTFMQLNLDPTRSAP”: the protein production entry is reported as “not failed”. Next, “MSASRILTAFGLTGALVTAGVAQAGIVYIPEGSADSVLMVESETGQPVGRISGVEAVHGLAGAPGTPYLVAGSYSEIDPESAAQTARPEGVSQADHNAHHAKPAKAAMPTDKGLSLVSVIDAGTGEVVRRIEVPGAVHHTAVSPDGRWAMATHPGGDGVSLIDLSTLEYAGFIATGPMPNYVSFSPDNSRAYVSNAGNGTLSELDLDRRILSRNLLAGEGPEHFALSRDGATVFVADAEAGRVLRLDIASGAETASYGFGAELHGLDLSEREDTLFVAVKGADQVAAVDLASGAVRLQELAPAPYHLTVADGGETLFVSSREASMVWAVDQVSLRVTAEIGIEGEGHQMVVLP”: “failed”; “MSASTGASVIDLYHQAQDYFFVSISQFYRRFGSGLSAYCTGVEASSLNLLMMNVCAVDEPGALAEGVAFLQRTGMPFCVVVPEALVPRVSGQLHQQHLLAADKTTCMVLDLTRHEPRQALAAQAQVRCSDLRLEDWAQPVQSAFESGEGGIEQYLARHRAALSAGRALSHFTLYVEERPVSALTLSLLPGLARLDDIGTVQDCQGQGYATALIQAVLAFARARGARTCVLEASLDGLSIYRKAGFEALFDYRTFCQE”: “failed”; “MSATGLEVFDRTLHKTHAWLKAIMEELGTEDRHKAYLALRAVLHALRDRLTVEEVAQLAAQLPMLVRGLYYEGWDPTGKPLKERHKEAFLAHVAEELKTPSGPAVDPEAATRAVFKVLSREISQGELEDVLGLLPKELRALWPQG”: “not failed”. On to “MSATYQLALQQLTDSALPTGAFAHSLGFESYIHRGLVRDESTFSTWLQAFVSQQLSYSDGLALRFLFEGVDVGLLDGVLSAQLLAREVREASLKMGGRLLEIGGEVFPSAELEAYRGLVRAGSASGHQPLAFGVIARSLGVPLEEALSAYLFATVTSLTQNAVRAIPLGQNAGQRVLRQAHDAVAAAIHVVAQLCWDDFGAVSPGLEISQMRHERQRARMFMS”, for which the protein production entry is listed as “failed”. In the case of “MSAYPPGAAPSDPVDPVTLEAGQTAKVTRPTGRFMLGHPARLIALGFGSGLSPVSPGTVGTLLGWLSFIVISKWIDPTTWLWIIAGGFVIGIWACLRTARDMGVYDHGSMVWDEIVAFWLVLLFVMPTGFWGQFAAFVWFRFFDIVKPAPIRYYDRTLKGPGFTGAFGVMFDDIFAAFYTLLVFALWRSI”, the protein production result was “failed”. Next, “MSCRHGTTRCRSLCDYGGLSMQYVNTCPVLNVEECDRLSFMPYLFGTDFMLAELQVYALAKKWMPGYEGGFWHFIRLPEGGGYMMPDCGRVHLVSSENWFDRTVSADAAGIILTSLAINRRLAAHHDSSNPALTRLYMLRDAQLWNHITFHPECSAIYAALD”: “failed”; “MSCTNRVPGILMCEIFIRANQRSYSVQARSLRLHGVATSVRLEQLFWDVLEEIAARDGMRVTQLIERLYDELVQYRGEAANFTSFLRVCCLRYQVLQAEGRIPADATVPIRSLDAQAVLRGLPANLYDSRPLG”: “failed”; “MSCYNKALLIGNKVVVILVFLLCLVHSSESLRPLFACDPANGLTRTLRFCRANVPIHVRVQDLLGRLTLQEKIRNLVNNAAAVPRLGIGGYEWWSEALHGISDVGPGAKFGGAFPGATSFPQVITTAASFNQSLWEEIGRVVSDEARAMYNGGVAGLTYWSPNVNILRDPRWGRGQETPGEDPIVAAKYAASYVRGLQGTAAGNRLKVAACCKHYTAYDLDNWNGVDRFHFNAKVTQQDLEDTYNVPFKSCVYEGKVASVMCSYNQVNGKPTCADENLLKNTIRGQWRLNGYIVSDCDSVDVFFNQQHYTSTPEEAAARSIKAGLDLDCGPFLAIFTEGAVKKGLLTENDINLALANTLTVQMRLGMFDGNLGPYANLGPRDVCTPAHKHLALEAAHQGIVLLKNSARSLPLSPRRHRTVAVIGPNSDVTETMIGNYAGKACAYTSPLQGISRYARTLHQAGCAGVACKGNQGFGAAEAAAREADATVLVMGLDQSIEAETRDRTGLLLPGYQQDLVTRVAQASRGPVILVLMSGGPIDVTFAKNDPRVAAIIWAGYPGQAGGAAIANIIFGAANPGGKLPMTWYPQDYVAKVPMTVMAMRASGNYPGRTYRFYKGPVVFPFGFGLSYTTFTHSLAKSPLAQLSVSLSNLNSANTILNSSSHSIKVSHTNCNSFPKMPLHVEVSNTGEFDGTHTVFVFAEPPINGIKGLGVNKQLIAFEKVHVMAGAKQTVQVDVDACKHLGVVDEYGKRRIPMGEHKLHIGDLKHTILVQPQL”: “failed”. Next, “MSDAAISCSWKPFFRELATRLLDYEDRQPELLAALRDASISINHDEGEPLREVDPFTFFSLVLKHTSDATALPLFARVGAALGVQAPSPTDLIGVPWSNPMNAWFFAYRSQRQPGDVPLLWRLARQAVAGILDAQTFEDALKIRKVALPKLTQGLFWLNPERFLALNAVNVPYLQARGLQAAGQVQTLAEYETVLEAAHKLNPDFAALSHRAWLNSQTAALEGNHFPFARYQADAQEFAGDKVKGNLVLDRRYAPLLLDLMAGEWETLKPSRSPYSGREQLAVKVALGGGVKTDGGAFARALLFADDSGFEYVPFSAGLTLEAGLPDGRGDGPRQALQEPARQHTLLTALNAPLPAGLEATLTLNTDFGALFLLPLGPGREAEAAQQLQQYMSGVGRSRRLRVGLSLLPEHLESDKFPELLDAALTYLDALVDLLDGLMRPSEETSTEEIGVPGTRPVAPTPAAFVPVPGVPLNQILYGPPGTGKTYRVVDEALSVLDPAFLSAHPGSEGRAARKARYDELAAQGQISFVTFHQSFGYEDFIEGIKPVMSGGALSYVLQDGVFLEAVRSAGGALAPAAPEAGPSTETQPLVRPDAQVWRMYIDGTAPVSRIRDLSLGRGELRMGSYGKPPRDLTQAGVEDLSGRQLLFKESVRVGDLMLLATAADRIGAVGVVTGDYRFDPHSDPTFATDYAHTRSVKWLAQDLNVGATETLGKSFAPPTLQRVADVTPAQVLQALGVSTAGGETAHAPTPRPHVLIIDEINRGNISKIFGELITLLESGKRTGAPEALTVTLPLSRRPLSVPQSLYVIGTMNTADRSLTLLDAALRRRFVFRPVWPQPEVLPVLDLGGTALDLRKFLHVINDRIERLLSREQVIGHAYLLGLPATLGGVSSALRERILPLLEEYFFEDWSKIREVLGDESKAEALQFIHRSGSGPELRYRLNPEAFENIEAFTGVYAGVSDQDFPFDA”: “failed”. As to “MSDAMPLDQTLEQLTQDEWIDIPQGWSQGRTIYGGLVAGLLMHKALSVMNDESKNLLSTSITFVGPVNEGRVRLTVEILRQGKSVTTIEARLWQDQAVQTILIASFGQPRSSEIFVLNLPEAPDYLSPEQFSRMPFVKMMPECYQQFDLRWAEGHYPMTQQAPDFGGWCRYDIQKHSPRALNVADLLILMDIWPPGVLPMFQTIAPASSLTWHLTFVRPVAYELHDWFKYQVVTQHAAFGYATEYAHLWDAQNRLIAISRQTVTVFA”, the protein production entry is on record as “failed”.

As for “MSDAPVCERNPFLGMWSMVTRKTASGASLGAGQAITPLEAMRCYTANPARAEGQAARKGTLSPGKLADLIVLDRDPCAVDPDEIRHTQVLATLVGGQATYRAAGAPLEHHHHHH”, the protein production result is “failed”. “MSDAQLGPLRLTLLSVSARTGFCKKQQELWQRRKEAAEALGTRKVSVLLATSHSGARPAVSTMDSSAAPTNASNCTDALAYSSCSPAPSPGSWVNLSHLDGNLSDPCGPNRTDLGGRDSLCPPTGSPSMITAITIMALYSIVCVVGLFGNFLVMYVIVRYTKMKTATNIYIFNLALADALATSTLPFQSVNYLMGTWPFGTILCKIVISIDYYNMFTSIFTLCTMSVDRYIAVCHPVKALDFRTPRNAKIINVCNWILSSAIGLPVMFMATTKYRQGSIDCTLTFSHPTWYWENLLKICVFIFAFIMPVLIITVCYGLMILRLKSVRMLSGSKEKDRNLRRITRMVLVVVAVFIVCWTPIHIYVIIKALVTIPETTFQTVSWHFCIALGYTNSCLNPVLYAFLDENFKRCFREFCIPTSSNIEQQNSTRIRQNTRDHPSTANTVDRTNHQVRSL”: the protein production result was “failed”. Next, “MSDDEIGDGARAFNQLIQALSLSIETETAVRTFTEMLVSELDVHQLTEQALALLLQHTGADGGAILIEVDGEIRVAASQGIGSAHTLANNDRVRSALRTERRHRVQLPEDLVVDGMLAQFRPKEVIIDPVRHKEVVLGAVVLASGQGFSAEDRNRLDVFERGLALALHNALLYDRLQTLAALDPLEHHHHHH”: “failed”; “MSDGPLLNDVTRAFAEAHRNEDVRDLALKTKRTADLDLPAALDQIAGWQIARNKLPQWAACADIVYPAHISMEQCSSQFTAQYKAEIARRLLRSLPQSAGQTANDATMTDLTGGFGVDFSYLARGFGHATYVERQSHLCELAAHNMAALGLTQAQVVCGDGVEYLRAMEPAQLIYIDPARRDEHGARTYAIEDCTPDVLALRDLLLAKARYVMIKLSPMLDWRKAVDDFAGTVAEVHIVSTGNECKELLLVLDGKAAGATSDAAAADTRAPHVYCVNDDQRLDYDAAAYTRGLRIGDAPLPHELRYLYEPNASIMKAGCFDVVEARFGAVQIGPSSHLFVSDEPVDGFPGRGFAIETIGGMGKKELKRLLSGLDRANIAVRNFPLTAPQLRKKLKLADGGDAYLFGTTMQGGDHVLIRTAKISR”: “failed”.

In the case of “MSDHEAGHKFLARLGKKRLRPGGRKATEWLLSQAAFRQDSVVLEVACNMGTTAMEIARRFGCKVIGADMDKAALQKAQENVAANGLASQVTIMQANALELPFPDNHFDVVINEAMLTMYADKAKSRIIAEYYRVLKPGGRLITHDIMLLSEKDTGALQAVEQMHKAINVHAQPMLRERWVTLFQECGFSKVNYDNGAMTLLTPQGLIYDEGVAGAARIVKNALKKENRSMFFNMFHTFRRNRNQLNYIAVCSTK”, the protein production entry is “failed”.

Values taken from a protein production outcome set (Wang et al. 2014).
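Further: failed if final PepcDB status was selected cloned or expressed and not failed if soluble or beyond.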
